B1: N^ε1-[(4S)-4-carboxy-4-(19-carboxynonadecanoylamino)butanoyl]-[Asp14,Arg17,Pro21,Pro27,Pro34,Arg35]-h-amylin (peptide)
peptide: K([γGlu-C20 diacid])CNTATCATQRLADFLRHSSPNFGAIPSSTNVGPRTY-NH2
modifications: disulfide 2-7; N-terminus assumed
SMILES: CC[C@H](C)[C@H](NC(=O)[C@H](C)NC(=O)CNC(=O)[C@H](Cc1ccccc1)NC(=O)[C@H](CC(N)=O)NC(=O)[C@@H]1CCCN1C(=O)[C@H](CO)NC(=O)[C@H](CO)NC(=O)[C@H](Cc1c[nH]cn1)NC(=O)[C@H](CCCNC(=N)N)NC(=O)[C@H](CC(C)C)NC(=O)[C@H](Cc1ccccc1)NC(=O)[C@H](CC(=O)O)NC(=O)[C@H](C)NC(=O)[C@H](CC(C)C)NC(=O)[C@H](CCCNC(=N)N)NC(=O)[C@H](CCC(N)=O)NC(=O)[C@@H](NC(=O)[C@H](C)NC(=O)[C@@H]1CSSC[C@H](NC(=O)[C@@H](N)CCCCNC(=O)CC[C@H](NC(=O)CCCCCCCCCCCCCCCCCCC(=O)O)C(=O)O)C(=O)N[C@@H](CC(N)=O)C(=O)N[C@@H]([C@@H](C)O)C(=O)N[C@@H](C)C(=O)N[C@@H]([C@@H](C)O)C(=O)N1)[C@@H](C)O)C(=O)N1CCC[C@H]1C(=O)N[C@@H](CO)C(=O)N[C@@H](CO)C(=O)N[C@H](C(=O)N[C@@H](CC(N)=O)C(=O)N[C@H](C(=O)NCC(=O)N1CCC[C@H]1C(=O)N[C@@H](CCCNC(=N)N)C(=O)N[C@H](C(=O)N[C@@H](Cc1ccc(O)cc1)C(N)=O)[C@@H](C)O)C(C)C)[C@@H](C)O
notes: modifications are with respect to human amylin
B2: N^ε1-[(4S)-4-carboxy-4-(19-carboxynonadecanoylamino)butanoyl]-[Glu14,Arg17,Pro21,Pro27,His34,Glu35]-h-amylin (peptide)
peptide: K([γGlu-C20 diacid])CNTATCATQRLAEFLRHSSPNFGAIPSSTNVGHETY-NH2
modifications: disulfide 2-7; N-terminus assumed
SMILES: CC[C@H](C)[C@H](NC(=O)[C@H](C)NC(=O)CNC(=O)[C@H](Cc1ccccc1)NC(=O)[C@H](CC(N)=O)NC(=O)[C@@H]1CCCN1C(=O)[C@H](CO)NC(=O)[C@H](CO)NC(=O)[C@H](Cc1c[nH]cn1)NC(=O)[C@H](CCCNC(=N)N)NC(=O)[C@H](CC(C)C)NC(=O)[C@H](Cc1ccccc1)NC(=O)[C@H](CCC(=O)O)NC(=O)[C@H](C)NC(=O)[C@H](CC(C)C)NC(=O)[C@H](CCCNC(=N)N)NC(=O)[C@H](CCC(N)=O)NC(=O)[C@@H](NC(=O)[C@H](C)NC(=O)[C@@H]1CSSC[C@H](NC(=O)[C@@H](N)CCCCNC(=O)CC[C@H](NC(=O)CCCCCCCCCCCCCCCCCCC(=O)O)C(=O)O)C(=O)N[C@@H](CC(N)=O)C(=O)N[C@@H]([C@@H](C)O)C(=O)N[C@@H](C)C(=O)N[C@@H]([C@@H](C)O)C(=O)N1)[C@@H](C)O)C(=O)N1CCC[C@H]1C(=O)N[C@@H](CO)C(=O)N[C@@H](CO)C(=O)N[C@H](C(=O)N[C@@H](CC(N)=O)C(=O)N[C@H](C(=O)NCC(=O)N[C@@H](Cc1c[nH]cn1)C(=O)N[C@@H](CCC(=O)O)C(=O)N[C@H](C(=O)N[C@@H](Cc1ccc(O)cc1)C(N)=O)[C@@H](C)O)C(C)C)[C@@H](C)O
notes: modifications are with respect to human amylin; also called compound 107
B3: N^ε1-[(4S)-4-carboxy-4-(19-carboxynonadecanoylamino)butanoyl]-[Glu14,Arg17,Pro21,Pro27,His35]-h-amylin (peptide)
peptide: K([γGlu-C20 diacid])CNTATCATQRLAEFLRHSSPNFGAIPSSTNVGSHTY-NH2
modifications: disulfide 2-7; N-terminus assumed
SMILES: CC[C@H](C)[C@H](NC(=O)[C@H](C)NC(=O)CNC(=O)[C@H](Cc1ccccc1)NC(=O)[C@H](CC(N)=O)NC(=O)[C@@H]1CCCN1C(=O)[C@H](CO)NC(=O)[C@H](CO)NC(=O)[C@H](Cc1c[nH]cn1)NC(=O)[C@H](CCCNC(=N)N)NC(=O)[C@H](CC(C)C)NC(=O)[C@H](Cc1ccccc1)NC(=O)[C@H](CCC(=O)O)NC(=O)[C@H](C)NC(=O)[C@H](CC(C)C)NC(=O)[C@H](CCCNC(=N)N)NC(=O)[C@H](CCC(N)=O)NC(=O)[C@@H](NC(=O)[C@H](C)NC(=O)[C@@H]1CSSC[C@H](NC(=O)[C@@H](N)CCCCNC(=O)CC[C@H](NC(=O)CCCCCCCCCCCCCCCCCCC(=O)O)C(=O)O)C(=O)N[C@@H](CC(N)=O)C(=O)N[C@@H]([C@@H](C)O)C(=O)N[C@@H](C)C(=O)N[C@@H]([C@@H](C)O)C(=O)N1)[C@@H](C)O)C(=O)N1CCC[C@H]1C(=O)N[C@@H](CO)C(=O)N[C@@H](CO)C(=O)N[C@H](C(=O)N[C@@H](CC(N)=O)C(=O)N[C@H](C(=O)NCC(=O)N[C@@H](CO)C(=O)N[C@@H](Cc1c[nH]cn1)C(=O)N[C@H](C(=O)N[C@@H](Cc1ccc(O)cc1)C(N)=O)[C@@H](C)O)C(C)C)[C@@H](C)O
notes: as for B1
B4: N^ε1-[(4S)-4-carboxy-4-(19-carboxynonadecanoylamino)butanoyl]-[Glu14,Arg17,Pro21,Pro27,Arg34,Glu35]-h-amylin (peptide)
peptide: K([γGlu-C20 diacid])CNTATCATQRLAEFLRHSSPNFGAIPSSTNVGRETY-NH2
modifications: disulfide 2-7; N-terminus assumed
SMILES: CC[C@H](C)[C@H](NC(=O)[C@H](C)NC(=O)CNC(=O)[C@H](Cc1ccccc1)NC(=O)[C@H](CC(N)=O)NC(=O)[C@@H]1CCCN1C(=O)[C@H](CO)NC(=O)[C@H](CO)NC(=O)[C@H](Cc1c[nH]cn1)NC(=O)[C@H](CCCNC(=N)N)NC(=O)[C@H](CC(C)C)NC(=O)[C@H](Cc1ccccc1)NC(=O)[C@H](CCC(=O)O)NC(=O)[C@H](C)NC(=O)[C@H](CC(C)C)NC(=O)[C@H](CCCNC(=N)N)NC(=O)[C@H](CCC(N)=O)NC(=O)[C@@H](NC(=O)[C@H](C)NC(=O)[C@@H]1CSSC[C@H](NC(=O)[C@@H](N)CCCCNC(=O)CC[C@H](NC(=O)CCCCCCCCCCCCCCCCCCC(=O)O)C(=O)O)C(=O)N[C@@H](CC(N)=O)C(=O)N[C@@H]([C@@H](C)O)C(=O)N[C@@H](C)C(=O)N[C@@H]([C@@H](C)O)C(=O)N1)[C@@H](C)O)C(=O)N1CCC[C@H]1C(=O)N[C@@H](CO)C(=O)N[C@@H](CO)C(=O)N[C@H](C(=O)N[C@@H](CC(N)=O)C(=O)N[C@H](C(=O)NCC(=O)N[C@@H](CCCNC(=N)N)C(=O)N[C@@H](CCC(=O)O)C(=O)N[C@H](C(=O)N[C@@H](Cc1ccc(O)cc1)C(N)=O)[C@@H](C)O)C(C)C)[C@@H](C)O
notes: as for B1
B5: N^ε1-[(4S)-4-carboxy-4-(19-carboxynonadecanoylamino)butanoyl]-[Asp14,Arg17,Pro21,Pro27,Pro34,Glu35]-h-amylin (peptide)
peptide: K([γGlu-C20 diacid])CNTATCATQRLADFLRHSSPNFGAIPSSTNVGPETY-NH2
modifications: disulfide 2-7; N-terminus assumed
SMILES: CC[C@H](C)[C@H](NC(=O)[C@H](C)NC(=O)CNC(=O)[C@H](Cc1ccccc1)NC(=O)[C@H](CC(N)=O)NC(=O)[C@@H]1CCCN1C(=O)[C@H](CO)NC(=O)[C@H](CO)NC(=O)[C@H](Cc1c[nH]cn1)NC(=O)[C@H](CCCNC(=N)N)NC(=O)[C@H](CC(C)C)NC(=O)[C@H](Cc1ccccc1)NC(=O)[C@H](CC(=O)O)NC(=O)[C@H](C)NC(=O)[C@H](CC(C)C)NC(=O)[C@H](CCCNC(=N)N)NC(=O)[C@H](CCC(N)=O)NC(=O)[C@@H](NC(=O)[C@H](C)NC(=O)[C@@H]1CSSC[C@H](NC(=O)[C@@H](N)CCCCNC(=O)CC[C@H](NC(=O)CCCCCCCCCCCCCCCCCCC(=O)O)C(=O)O)C(=O)N[C@@H](CC(N)=O)C(=O)N[C@@H]([C@@H](C)O)C(=O)N[C@@H](C)C(=O)N[C@@H]([C@@H](C)O)C(=O)N1)[C@@H](C)O)C(=O)N1CCC[C@H]1C(=O)N[C@@H](CO)C(=O)N[C@@H](CO)C(=O)N[C@H](C(=O)N[C@@H](CC(N)=O)C(=O)N[C@H](C(=O)NCC(=O)N1CCC[C@H]1C(=O)N[C@@H](CCC(=O)O)C(=O)N[C@H](C(=O)N[C@@H](Cc1ccc(O)cc1)C(N)=O)[C@@H](C)O)C(C)C)[C@@H](C)O
notes: as for B1

IC50 data for five molecules are collected here from patent publication US20140087995A1 (published 2014).

Numbered stars: 1 amine (or outer) side, 2 acyl side, 3 side chain; on linkers, the order of the positions; unused ones are H or OH. Bridge positions count the residues as written; N and C are the ends. Side chains are listed from the residue outwards. Ends that are not written are not given here. * marks the point of attachment. C20 diacid = O=C(O)CCCCCCCCCCCCCCCCCCC(=O)*; γGlu = O=C(O)[C@H](CCC(=O)[*:2])N[*:1]

As usually defined, the IC50 is the point on the concentration scale where inhibition reaches its midpoint.

This assay deals with T1, human amylin receptor (Amylin 3(a) receptor: human calcitonin receptor co-expressed with RAMP-3) (human, UniProt P30988 25-474; O60896 24-148, limits assumed).
T1 construct: whole, on cells; Used as cell membranes prepared from the Amylin 3(a)/CRE-luc BHK cells (Assay V); the complex is called the human amylin receptor; also called hAmylin-R; hAmylinR
T1 sequence (looked up) 1: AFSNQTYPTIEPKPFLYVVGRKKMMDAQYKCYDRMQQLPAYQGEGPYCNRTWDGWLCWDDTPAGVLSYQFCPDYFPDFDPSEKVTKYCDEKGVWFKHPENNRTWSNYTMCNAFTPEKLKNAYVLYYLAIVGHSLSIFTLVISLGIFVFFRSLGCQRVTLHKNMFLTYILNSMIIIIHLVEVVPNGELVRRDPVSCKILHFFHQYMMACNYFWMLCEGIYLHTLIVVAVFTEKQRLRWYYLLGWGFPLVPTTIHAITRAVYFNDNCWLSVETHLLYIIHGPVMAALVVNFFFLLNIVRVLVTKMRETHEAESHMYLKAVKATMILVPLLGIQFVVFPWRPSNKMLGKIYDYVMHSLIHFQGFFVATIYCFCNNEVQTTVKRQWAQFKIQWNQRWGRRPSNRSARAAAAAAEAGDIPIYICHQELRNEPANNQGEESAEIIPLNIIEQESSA
T1 sequence (looked up) 2: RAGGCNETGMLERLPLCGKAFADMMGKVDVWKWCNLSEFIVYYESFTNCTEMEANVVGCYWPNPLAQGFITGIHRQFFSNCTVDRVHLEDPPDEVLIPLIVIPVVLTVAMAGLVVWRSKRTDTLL
The assay can be described thus: SPA competition binding, displacement of 125I-rat amylin from membranes of BHK cells with human calcitonin receptor + RAMP-3 (Assay V). The protocol:
The binding assay was performed using scintillation proximity assay (SPA) beads (RPNQ0001) from PerkinElmer and cell membranes from the Amylin 3(a)/CRE-luc cells (as described in Assay (II)) were used. Membranes were prepared in the following way; the cells were rinsed with PBS and incubated with Versene for approximately 5 min before harvesting. The cells were flushed with PBS and the cell-suspension was centrifuged for 5 min at 1000 rpm. Cells were homogenized (ultrathurrax) in a buffer containing 20 mM Na-HEPES and 10 mM EDTA (pH 7.4) and centrifuged at 20.000 rpm for 15 min. The resulting pellet was resuspended, homogenized and centrifuged (20.000 rpm, 15 min) in a buffer containing 20 mM Na-HEPES and 0.1 mM EDTA (pH 7.4, buffer 2). The resulting pellet was resuspended in buffer 2 and protein concentration was measured (BCA protein Assay, Pierce). The homogenate was kept cold during the whole procedure. The membranes were kept at −80° C. until use. The assay was performed in a 384 well Optiplate (PerkinElmer) in a total volume of 40 ul. Membranes were mixed with SPA beads. Final concentration of membranes 35 ng/μL final and SPA beads was 0.05 mg/well. Test-compounds were dissolved in DMSO and further diluted in assay buffer (50 mM Hepes, pH 7.4, 1 mM CaCl2, 5 mM MgCl₂, 0.1% OA and 0.02% Tween20). […] The final mixture was incubated with shaking at 400 rpm for 120 min at 25° C. prior to centrifugation (1500 rpm, 10 min). Samples were analyzed on TopCounter™ (Packard). The IC₅₀ was calculated using (one site binding competition analysis) GraphPad Prism5 as a measure of receptor affinity.
As for B1, the IC50 stood at 281 pM.

In the case of B2, the IC50 came out at 387 pM.

For the molecule B3, the half-maximal inhibitory concentration (IC50) turned out to be 992 pM.

As for B4, the IC50 stood at 232 pM.

Take B5: the IC50 came out at 196 pM.
